Article PMC3113324, “AKAP5 and AKAP12 Form Homo-oligomers” (Journal of Molecular Signaling, 2011)
Numbering of substitutions follows the chain as printed. Names and notes keep the numbering of the source.

B1: His-tagged human AKAP12 (natural protein, UniProt Q02952 1-1782, looked up)
chain: MGAGSSTEQRSPEQPPEGSSTPAEPEPSGGGPSAEAAPDTTADPAIAASDPATKLLQKNGQLSTINGVAEQDELSLQEGDLNGQKGALNGQGALNSQEEEEVIVTEVGQRDSEDVSKRDSDKEMATKSAVVHDITDDGQEETPEIIEQIPSSESNLEELTQPTESQANDIGFKKVFKFVGFKFTVKKDKTEKPDTVQLLTVKKDEGEGAAGAGDHKDPSLGAGEAASKESEPKQSTEKPEETLKREQSHAEISPPAESGQAVEECKEEGEEKQEKEPSKSAESPTSPVTSETGSTFKKFFTQGWAGWRKKTSFRKPKEDEVEASEKKKEQEPEKVDTEEDGKAEVASEKLTASEQAHPQEPAESAHEPRLSAEYEKVELPSEEQVSGSQGPSEEKPAPLATEVFDEKIEVHQEEVVAEVHVSTVEERTEEQKTEVEETAGSVPAEELVEMDAEPQEAEPAKELVKLKETCVSGEDPTQGADLSPDEKVLSKPPEGVVSEVEMLSSQERMKVQGSPLKKLFTSTGLKKLSGKKQKGKRGGGDEESGEHTQVPADSPDSQEEQKGESSASSPEEPEEITCLEKGLAEVQQDGEAEEGATSDGEKKREGVTPWASFKKMVTPKKRVRRPSESDKEDELDKVKSATLSSTESTASEMQEEMKGSVEEPKPEEPKRKVDTSVSWEALICVGSSKKRARRGSSSDEEGGPKAMGGDHQKADEAGKDKETGTDGILAGSQEHDPGQGSSSPEQAGSPTEGEGVSTWESFKRLVTPRKKSKSKLEEKSEDSIAGSGVEHSTPDTEPGKEESWVSIKKFIPGRRKKRPDGKQEQAPVEDAGPTGANEDDSDVPAVVPLSEYDAVEREKMEAQQAQKSAEQPEQKAATEVSKELSESQVHMMAAAVADGTRAATIIEERSPSWISASVTEPLEQVEAEAALLTEEVLEREVIAEEEPPTVTEPLPENREARGDTVVSEAELTPEAVTAAETAGPLGAEEGTEASAAEETTEMVSAVSQLTDSPDTTEEATPVQEVEGGVPDIEEQERRTQEVLQAVAEKVKEESQLPGTGGPEDVLQPVQRAEAERPEEQAEASGLKKETDVVLKVDAQEAKTEPFTQGKVVGQTTPESFEKAPQVTESIESSELVTTCQAETLAGVKSQEMVMEQAIPPDSVETPTDSETDGSTPVADFDAPGTTQKDEIVEIHEENEVASGTQSGGTEAEAVPAQKERPPAPSSFVFQEETKEQSKMEDTLEHTDKEVSVETVSILSKTEGTQEADQYADEKTKDVPFFEGLEGSIDTGITVSREKVTEVALKGEGTEEAECKKDDALELQSHAKSPPSPVEREMVVQVEREKTEAEPTHVNEEKLEHETAVTVSEEVSKQLLQTVNVPIIDGAKEVSSLEGSPPPCLGQEEAVCTKIQVQSSEASFTLTAAAEEEKVLGETANILETGETLEPAGAHLVLEEKSSEKNEDFAAHPGEDAVPTGPDCQAKSTPVIVSATTKKGLSSDLEGEKTTSLKWKSDEVDEQVACQEVKVSVAIEDLEPENGILELETKSSKLVQNIIQTAVDQFVRTEETATEMLTSELQTQAHVIKADSQDAGQETEKEGEEPQASAQDETPITSAKEESESTAVGQAHSDISKDMSEASEKTMTVEVEGSTVNDQQLEEVVLPSEEEGGGAGTKSVPEDDGHALLAERIEKSLVEPKEDEKGDDVDDPENQNSALADTDASGGLTKESPDTNGPKQKEKEDAQEVELQEGKVHSESDKAITPQAQEELQKQERESAKSELTES
notes: A-kinase-anchoring protein 12 (AKAP12, gravin, SSECKS), human, full length (1-1782), calculated MW 191.5 kDa; also called gravin; SSECKS; source: E. coli, purified by gel filtration chromatography (Superose 12)
B2: HA-AKAP12 (840-1782) (domain or fragment, human, UniProt Q02952 840-1782, looked up)
chain: DSDVPAVVPLSEYDAVEREKMEAQQAQKSAEQPEQKAATEVSKELSESQVHMMAAAVADGTRAATIIEERSPSWISASVTEPLEQVEAEAALLTEEVLEREVIAEEEPPTVTEPLPENREARGDTVVSEAELTPEAVTAAETAGPLGAEEGTEASAAEETTEMVSAVSQLTDSPDTTEEATPVQEVEGGVPDIEEQERRTQEVLQAVAEKVKEESQLPGTGGPEDVLQPVQRAEAERPEEQAEASGLKKETDVVLKVDAQEAKTEPFTQGKVVGQTTPESFEKAPQVTESIESSELVTTCQAETLAGVKSQEMVMEQAIPPDSVETPTDSETDGSTPVADFDAPGTTQKDEIVEIHEENEVASGTQSGGTEAEAVPAQKERPPAPSSFVFQEETKEQSKMEDTLEHTDKEVSVETVSILSKTEGTQEADQYADEKTKDVPFFEGLEGSIDTGITVSREKVTEVALKGEGTEEAECKKDDALELQSHAKSPPSPVEREMVVQVEREKTEAEPTHVNEEKLEHETAVTVSEEVSKQLLQTVNVPIIDGAKEVSSLEGSPPPCLGQEEAVCTKIQVQSSEASFTLTAAAEEEKVLGETANILETGETLEPAGAHLVLEEKSSEKNEDFAAHPGEDAVPTGPDCQAKSTPVIVSATTKKGLSSDLEGEKTTSLKWKSDEVDEQVACQEVKVSVAIEDLEPENGILELETKSSKLVQNIIQTAVDQFVRTEETATEMLTSELQTQAHVIKADSQDAGQETEKEGEEPQASAQDETPITSAKEESESTAVGQAHSDISKDMSEASEKTMTVEVEGSTVNDQQLEEVVLPSEEEGGGAGTKSVPEDDGHALLAERIEKSLVEPKEDEKGDDVDDPENQNSALADTDASGGLTKESPDTNGPKQKEKEDAQEVELQEGKVHSESDKAITPQAQEELQKQERESAKSELTES
notes: AKAP12, human, C-terminal fragment, residues 840-1782; also called AKAP12 C-terminal (840-1782) fragment; source: HEK293, transfected (pcDNA3.1), in whole-cell lysate
B3: HA-AKAP12 (1-938) (domain or fragment, human, UniProt Q02952 1-938, looked up)
chain: MGAGSSTEQRSPEQPPEGSSTPAEPEPSGGGPSAEAAPDTTADPAIAASDPATKLLQKNGQLSTINGVAEQDELSLQEGDLNGQKGALNGQGALNSQEEEEVIVTEVGQRDSEDVSKRDSDKEMATKSAVVHDITDDGQEETPEIIEQIPSSESNLEELTQPTESQANDIGFKKVFKFVGFKFTVKKDKTEKPDTVQLLTVKKDEGEGAAGAGDHKDPSLGAGEAASKESEPKQSTEKPEETLKREQSHAEISPPAESGQAVEECKEEGEEKQEKEPSKSAESPTSPVTSETGSTFKKFFTQGWAGWRKKTSFRKPKEDEVEASEKKKEQEPEKVDTEEDGKAEVASEKLTASEQAHPQEPAESAHEPRLSAEYEKVELPSEEQVSGSQGPSEEKPAPLATEVFDEKIEVHQEEVVAEVHVSTVEERTEEQKTEVEETAGSVPAEELVEMDAEPQEAEPAKELVKLKETCVSGEDPTQGADLSPDEKVLSKPPEGVVSEVEMLSSQERMKVQGSPLKKLFTSTGLKKLSGKKQKGKRGGGDEESGEHTQVPADSPDSQEEQKGESSASSPEEPEEITCLEKGLAEVQQDGEAEEGATSDGEKKREGVTPWASFKKMVTPKKRVRRPSESDKEDELDKVKSATLSSTESTASEMQEEMKGSVEEPKPEEPKRKVDTSVSWEALICVGSSKKRARRGSSSDEEGGPKAMGGDHQKADEAGKDKETGTDGILAGSQEHDPGQGSSSPEQAGSPTEGEGVSTWESFKRLVTPRKKSKSKLEEKSEDSIAGSGVEHSTPDTEPGKEESWVSIKKFIPGRRKKRPDGKQEQAPVEDAGPTGANEDDSDVPAVVPLSEYDAVEREKMEAQQAQKSAEQPEQKAATEVSKELSESQVHMMAAAVADGTRAATIIEERSPSWISASVTEPLEQVEAEAALLTEEVLE
notes: AKAP12, human, N-terminal fragment, residues 1-938; also called AKAP12 N-terminal (1-938) fragment; source: HEK293, transfected (pcDNA3.1), in whole-cell lysate
B4: HA-tagged full-length AKAP12 (1-1782) (natural protein, human, UniProt Q02952 1-1782, looked up)
chain: B1 chain
notes: AKAP12, human, full length (1-1782); also called HA-AKAP12; HA-tagged AKAP12; source: HEK293, transfected (pcDNA3.1), in whole-cell lysate
B5: HA-AKAP12M3 (S627A, S696-698A, S772A) (natural protein, human, UniProt Q02952 1-1782, looked up)
chain: B1 chain with S627A, S696A, S697A, S698A, S772A
notes: AKAP12, human, with alanine substitution of the protein kinase A phosphorylation sites; source: HEK293, transfected (pcDNA3.1), in whole-cell lysate
B6: full-length endogenous AKAP12 (natural protein, human (endogenous in HEK293), UniProt Q02952 1-1782, looked up)
chain: B1 chain
notes: AKAP12, endogenous in HEK293 cells, detected with anti-AKAP12 antibody; also called native AKAP12; endogenously expressed AKAP12; source: endogenous, HEK293 whole-cell lysate

Target: the molecule itself
Test: SDS-PAGE (SDS-resistant oligomers); purified His-tagged proteins resolved on SDS-PAGE without urea; Coomassie staining and immunoblotting

Stoichiometry N, 2:
B1

Target: the molecule itself
Test: SDS-PAGE (SDS-resistant oligomers); whole-cell lysates of HEK293 cells on SDS-PAGE without urea; immunoblot with anti-HA or anti-AKAP12; cells also treated with isoproterenol (10 uM, 0, 5, 30 min), KT5720, PD98059 or Rolipram (45 min)

Stoichiometry N, 2:
B2, B3, B4, B5, B6
